In the DeepSol protein solubility set:

Assay: soluble on expression in E. coli; label from the status in PepcDB or PDB records

Row | Sequence | soluble on expression in E. coli
1 | SLKTKTFKMQLQFLSEQNLEINNNNQLLNQEKITYLQKIEQLKCKLEYQERMIKDSEKIREESFASAKAALFDLGKDLSKQLIEIHKMENNTTRELAEKNIETASQKFNTELERLITMVGALNKDIEQSKGTVDLIKQSLLSPIGAGLLSEITLENILKSSGLRPNLDFIMQYSLTTSDSVKLRPDAIIFLPSGNLMVIDSKASKFLVDSQDNSVHLSKTMNYHLKTLTNKDYAENILTNLNKKTQNFNNVITLMFLPTEQAVEKVIAANPEFLQKAWGCNIFPVGPAGLMNMLSFAKFQITDNRRSENYKVIIEEVRKLLSSIGTIADYSKKIGYNLQNMVTNYDKFAASFNRNVMSRVKSIQKLGIDSGNKIIPATLERYQIVSAKSEIIEVDVENQHK | soluble
2 | MNGRRWMVLAAVVGVSTLSACASQGHDSDETLPTYTPPAWMAEVRAQNEEYANAGVACLAAHGVEGTADNGTFGISYGPQSQGALTHMTDEEADALLTECSESLSLPDYVNNSADEEYDRVLDLRECVIAQGYDMPDAPSREVWTEQWERTRDAWVPYYHEMTLDPDGLERHKVTVEEMNRLQSICVPSTVGATTVSR | not soluble
3 | MGSDKIHHHHHHSDEKYPMPTSIDQNSLSAEAKAGAIKLKWTVPADSNYYYVKVTYTLPEDGKKCMRLASVNSDTMLVDNLLHRYGDINFTLQPCNRAGEASQSCSIMAQALPALKQIKTDRNPITLSAKQLYTDDQESSEGPIANLVDGRNDTYFHMSWSSPTPFPHYIVVDLGEENALSTFLFSYVCRDNNNKDNPKEMDILGSNTFDGKNYDESQTTLLASLSNLPNTKAASYESDIIKAGASYRYLWFKVKSSTSGSNWIALAELGLSKVIVKTYDPETGETTIE | not soluble
4 | MYRKEWQDPDRIVDQLPISPGFDIVDLGCGPGFFTLPLASRTDGKVYAVDASDEMIEILKERIDGHSNIIPVKARAENIPIPDGTVDLVFIANAFHDFDDRDAVLGEIYRILRDGGYLVDIDWKKDETTHGPPVDIRIDRKDALLLISSHNFDIVKEIEAGAHHYGLLFRKN | not soluble
5 | MAHHHHHHMGTLEAQTQGPGSMKQAYDNNNIFAKLIRNEIPSVRVYEDDDVIAFMDIMPQAPGHTLVIPKKGSRNLLDADTETLFPVIKAVQKIAKAVKKAFQADGITVMQFNEAASQQTVYHLHFHIIPRMEGIELTPHNNIITPTEILEENAKKIRAAL | soluble
6 | MAQKILVEQVVKRKAIVVQPKDTVDRVAKILSRNKAGSAVVMEGDEILGVVTERDILDKVVAKGKNPKEVKVEEIMTKNPVKIEYDYDIEDVIELMTEKGVRRVLVTKFGKPIGFVTAADILAALASHNHEEEEEEREEESEVYGICEVCGQYGALYKVYHEGRELWVCETCKDLIEGR | soluble
7 | MTTTPTLEVYLQPEQLKAALRKDATVGLTSNPKWLPPKYFYDARGSELFEQITALPEYFPTRTERELLRRYSGEIAEVTAPEILVELGSGSSEKTRLLLGAATRHGSLHTYVPQDVSVSALEGAAEQIGVEFPHLTVRGVVSDFTESLHHLPRGGRRTIAFLGGTLGNMVPAERAEFLSGIADVLEPGEHLLLGVGLVIDPAVLVPAYDDAAGVTAQFNRNVLQVLNTQLDADFPVDEFRHVALWDADNEWIEMRLEAERAMSIRVGELDLDVEFTAGEQLRTEISAKFTLDGIRRELAEAGFDVERTWTDPDDRFALVCAARN | soluble
8 | MGSDKIHHHHHHMERFFIVGCGDIGKKVARIALADGAGVAALIRSPEKAESLREMGVTALEANLDERDSLAGMPTRGAVVFYFAPPPGGGVTDPRVRAFCDAIAPGEEPRKIVYLSTSGVYGDCGGDVVTEETPPNPQTSRARRRYDAETVFRQWGAERGVPVVILRVTGIYGPGRLPLQQLTSGQPVLEESLAPFTNRIHSEDLARICLAAAEHGEDGDIFNVSDGHPTTMTAYFDACADALGLPRPRRVTLEEARRVMTPLMFSYVTESRKMDNRLMREKLHVTLLYPTMQEGVRSSVA | not soluble
9 | MSLNGNATDSSSSTSSMTENSDGQKQNNEWFHGVLQRQDADELLVKPGSFLLRASEVHGKMSMILSVRHDGKLHNIAVNSDTGENFWFEGHREKSIDQLVQWHMTTSTPITKTSGVKLKYPIGKADWIISHENVIFIKKLGEGAFGEVSLAECEIGGRKVETAVKTMRCQMTRDTRAAFMKEARLMRKYSHPHIVRIIGKIIVKHLPKVGLAVDAHPLMIVMEMCPHGSLLSFLRKNKGKTTLSERLRFCIESADGLAYLEKKQCLHRDIAARNCLLSITDQIKISDFGLSDDKRTEMHDDTLDKVPVKWLAPEVMQDKLYSLKSDVWAFGVLMWEIYADGADPYPGMTNLVTRAKIFCDDYRMTFPETTPPTISEIALKQCWAKLPSDRATMKTVHHKLKDLSMPMSDVSFSMKMKR | not soluble
10 | MLPLIKRLFSSAPKDGEGAQKKWPFSYVVVLLLAGVALMAASHWANSGEEAEAKPSAGQPSAPAEPAFLASKETKEKVIAAYEERYEKELKAALEAIEGVDDVTVVVNLDSTELKLYEKKRSTQQQTTEESDKEGGKRTIENESTNEEVIIIHNGEEETPLVVATKKPDIRGVLVVAKGADNLQIKKWIVEAVTRVLNVPSYRVAVLPKK | not soluble
11 | MAHHHHHHMMYTGEIENGQMHGRGCLIYPNKEKYEGDWVYGKRHGHGVYTYADGSKYDGEWVEDKVHGKGTCYYASGNRYSGDWTFGRINGRGTLEYADGDRYDGEWKDGRMHGKGLYYYSNGDRYDGEWKDDKRHGKGTVTYAGPDGSVSEKFDGDWVEGRMQGWGKYYYADGGVYEGEWQDGKMHGKGTYIFPNGNKYEGEWCDDVKQGYGVLTYVNGERYEGYWLDDKAHGTGTLTYLQGDRYTGEWYQGKKHGRGTLAYSNKDTYEGEWRNDSATGRGVLEYANGCRYEGDWLDDRRHGEGQLLLPDGSSYEGGWVNGKKEGRARIILKCGAVFVGTWKDNLIVGQGEFYLSENCDLNNPDY | soluble
12 | MSFSENRRIALVTLVVDNYDRAKAFYCDVLGFECLSDKPLDDGKRWVVVKPQGAEGGALLLAEADGEQQRLAIGNQTGGRVGFFLHTDDFARDYETMIARGVHFLEEPRHEVYGSVAVFADPYGNRWDLLQPRG | not soluble
13 | MTGLYIHIPFCATRCSYCDFYSQTNSALRSEYIQALIAEMSIRRAEVTDTIGTLYFGGGTPSLLSPQEIGRIIEQVYRLFSFSSDAEITLEANPDDLNTSYVQELRTLPINRISMGAQSFHDEDLHFLNRRHNARQVLEAVDTCRNAGLTNLSIDLIYGLPGQTPARWQENISAVLALSPPHLSAYHLIYEEGTPLTRLLHAGKVREVDEEVSLELFRMLREQLTGAGYEHYEISNFARSGYHSCHNSSYWQDTPYLGLGPSAHSFDGRRTRRSNPSDIRRYIVSMAAGKPLFTEEILTDNDRYNEVVMTRLRTACGLSPDQIGHLFGKESAERCIRTAAPFIRDGLLHEEADGRIRLTEKGIFLSDRIISEFFIV | not soluble
14 | MGSDKIHHHHHHAETVVVRLGLFTESISLTELQNAAKTGELPRSLQSYAKGLSEQQRRFLLGALGMNIPMNVVTINKLLNTQIGTTILNDFATALARKDNAGVQALRGGLVLGSTAPGGLSILSFIAAYPSKRLEIDLPKAFIVAGNLNTAFWRTQQFMVAIAPRLDSTTSQIAFPFDPSQPGTAQVKILNLSLNDQKRQRKIPVDIYWSNDATANKPLIVFSHGLGSVRTDLRYLAEHLASHGYVVAALEHPGSNEDNINSALQGKTRPVKPQEFLNRPQDVSFVLDELEKLNQTTNHPLQGKLATMNAMVVGYSFGGSTALALAGGELQLERLKQRCKKNLAILSLGEAMQCIAQELPENTYQLRDTRIKQAIALNPTTSLIFGETGLTKVQVPTLVLAGSADKTTPALTEQIVGFDKIPSPKWLVGIVGGTHLSVKDPSKTMDQIGQPNTPISGGEVVGEQAADIRKYLKAITLAFAAQMTPEAKNYAIFLTSDYAQFASTKAFPFRLITQIPSNAMPVVKEFGDK | not soluble
15 | MAHHHHHHMLRRTSFNFTGRAMISRGSPEWSHRLDLKKGKKTTMMHKLGTSKPNNALQYAQMTLHDLTEWCLAYSPWPLTFGLACCAVEMMHAYASRYDLDRFGIVPRPTPRQAEIIIVSGTVTNKMAPILRNIYVQMVNPKWVISMGSCANGGGYYHFSYAVLRGCERAIPVDFWIPGCPPSAESLVFCLHTLQKKIRWHEIQKYSVRD | not soluble
16 | MSLEKQFFHPDRVKYDKDCFTIEGKDIFILSAAFHYFRCPQELWRDRFRKIKEAGFNTVETYVPWNWHERNMPKSVDDYSQCNFDDLKAWLHMAHEEFGLYTIVRPGPFICAEWAGGAYPRWLAKFCPDSYDTSFWLRSNHPEHMKWSEHWYNAVCRVFSEEQLTRKQPGEKGIIMVQLENEYIYFDMESEKKEEFLRVLSDACIRNGIDVPLFTCVTPEVRGSHDPVISQLFDMDNQYVWWNMHEAKSRIEKLKAEQPNAPAFVCELQGGWFSTVGGRLSEDSYLDGRHARGMALMAMAGGSTGLNYYMFFGGTHFAGWGARRMTTTYDYGAPLKENGGVGEKYAAVKGIGEVVDKFGGLLVRSRPVRFDVQGADNLTIGIRRAADGTLFVFLLNRDKKQAFRQLVNLTVEGKPMRIDCQLAALDSKLLVVHAGTDTVEWYPREQTLPEREGHHHHHH | soluble
17 | MKTMTLYVCQNCGYQSAKWLGKCPDCSAWNSLVEEVRGKGKGPSAPLSGVAPVPICDVAGEAEERLPCGISEFDRVLGGGLVAGSVILIGGDPGIGKSTLLLQVMDHLARTVGPVLYVSGEESARQARLRGERLGIRAKELLILAETALETVLAQIGAVAPRAVVIDSIQTMYAPGLESAPGSVSQVRECAGRLMVAAKRSAIPTFIVGHVTKDGSIAGPRVLEHMVDTVLYFEGDRGHAFRILRAVKNRFGSTNEIGVFEMKEGGLCEVRNPSEIFLSERPLGVSGSAVVTTIEGSRPLLVELQALVTPSSLGVPRRTTLGVDANRLALLVAVLDKKVGLHMAGQDIFLNAAGGARVSEPAADLGMVAALASSHLDKVIDPQTVVVGEVGLAGEVRAITQPETRVREAAKLGFTRAVIPAGSLKQVTAVEGMEVIGVKSVEEALDRLLLEHHHHHH | not soluble
18 | SGLVPRGSHMRLRPLGIEGVWEITPEQRADPRGVFLDWYHVDRFAEAIGRPLRLAQANLSVSVRGVVRGIHFVDVPPGQAKYVTCVRGAVFDVVVDLRVGSPTYGCWEGTRLDDVSRRAVYLSEGIGHGFCAISDEATLCYLSSGTYDPATEHGVHPLDPELAIDWPTGTPLLSPRDQDALLLAEARDAGLLPTYATCQAVTVPSPAPGSVGDPGP | soluble
19 | MGSDKIHHHHHHMAEKKEFVVGIDLGTTNSVIAWMKPDGTVEVIPNAEGSRVTPSVVAFTKSGEILVGEPAKRQMILNPERTIKSIKRKMGTDYKVRIDDKEYTPQEISAFILKKLKNDAEAYLGGEIKKAVITCPAYFNDAQRQATKEAGIIAGLEVLRIINEPTAAALAYGLDKAGKEEKVLVYDLGGGTFDVSILEIGEGVIEVIATAGNNHLGGDDFDQRLIDWMAEEFKKQHGIDLREDRQALQRLRDAAEKAKIELSTKMETDVSLPFIAVSPSGQPLHLEMRITRSLFESLTRDLVEMTRGPIEQALNDAKLSPQDIDEIILVGGMTRVPMVQRFIKEFFGKEPNKSVNPDEAVAIGAAIQAAILAGTEGAKGRDIVLVDVTPLTLGIEVKGGLFEPIIPRNTKIPVRKSKIFTTVEDGQTEVEIRVYQGERPIARENIFLGSFKLVGIPPAPRGVPQIEVTFDIDSDGIVHVSAKDLGSGKEQSMVVTGRHKLSEDEIKRMIEDAKRYEEQDKRLKEEIELKNRADDLAYSVEKTLKEHGDKIPADLKSRLEDMIRELRDAINRNDIPKVKMLFDDLQKESMKIGEYLYKSATGGETSNQ | not soluble
